Reference: the supplement of paper PMC7125110
± gives the standard error. Fewer inactive variants are shown than the library holds.

B1: glmS ribozyme (parent)
chain: AUAAAAGCGCCAGAACUACAGAAAUGUAGUUGACGAGGAGGAGGUUUAUCGAAUUUUCGGCGGAUGCCUCCAAA

How the values were obtained:
Settings in all cases: with glucosamine-6-phosphate
glucosamine-6-phosphate [1] = variants of: B1; test: self-cleavage kobs at 160 uM GlcN6P; higher = faster cleavage; RNA array
In short: (§1)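 Weighted Michaelis–Menten fits across concentrations supplied kcat and KM, based on kobs from one- or two-exponential decay fits to normalised per-tile medians. The data came from barcoded ribozyme variants transcribed in situ by E. coli RNA polymerase on sequenced MiSeq chips and tracked at 37 °C by a hybridised Cy3 probe. Glucosamine-6-phosphate (40 μM to 10 mM) in HEPES/KCl/Mg(OAc)2 buffer was flowed in.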

glucosamine-6-phosphate [2] = variants of: B1; test: self-cleavage kobs at 2500 uM GlcN6P; higher = faster cleavage; RNA array
In short: as §1

glucosamine-6-phosphate [3] = variants of: B1; test: self-cleavage kobs at 10000 uM GlcN6P; higher = faster cleavage; RNA array
In short: as §1

glucosamine-6-phosphate [4] = variants of: B1; test: self-cleavage kobs at 40 uM GlcN6P; higher = faster cleavage; RNA array
In short: as §1

glucosamine-6-phosphate [5] = variants of: B1; test: self-cleavage kobs at 640 uM GlcN6P; higher = faster cleavage; RNA array
In short: as §1

Variant | self-cleavage kobs at 160 uM GlcN6P (glucosamine-6-phosphate [1]) [s⁻¹] | self-cleavage kobs at 2500 uM GlcN6P (glucosamine-6-phosphate [2]) [s⁻¹] | self-cleavage kobs at 10000 uM GlcN6P (glucosamine-6-phosphate [3]) [s⁻¹] | self-cleavage kobs at 40 uM GlcN6P (glucosamine-6-phosphate [4]) [s⁻¹] | self-cleavage kobs at 640 uM GlcN6P (glucosamine-6-phosphate [5]) [s⁻¹]
A6C G40U C61A | < 1e-05 | < 1e-05 | < 1e-05 |  | 
G9U G40A A52U | < 1e-05 | < 1e-05 |  |  | 
C8U C50G G63U | 0.000108 ± 2.8e-05 | 5.35e-05 ± 2.6e-05 |  |  | 
G9C C10A U56A |  | < 1e-05 |  | < 1e-05 | < 1e-05
U30C G43U | < 1e-05 | < 1e-05 | < 1e-05 |  | 
G9U A33G G38U G44U C58A |  |  |  | < 1e-05 | 
A53C C58G G60A C67U | 0.000139 ± 3.1e-05 | 8.04e-05 ± 2.5e-05 |  |  | 
G43A U55G | < 1e-05 | 4.42e-05 ± 1.1e-05 | 5.21e-05 ± 7.9e-06 |  | 
G7U A12U U45G | < 1e-05 | < 1e-05 |  |  | < 1e-05
C68U C70A C71U |  | < 1e-05 | < 1e-05 | < 1e-05 | 
G13C A48G C71U | < 1e-05 |  |  |  | 
A12U C16U U54A | 0.00397 ± 0.00072 |  |  |  | 0.00766 ± 0.0025
G51U U56C U57C G63U | < 1e-05 | < 1e-05 | < 1e-05 |  | < 1e-05
A33U A64G | < 1e-05 |  | 6.18e-05 ± 1.1e-05 |  | 
G66U U69C | 0.000111 ± 2e-05 | 0.000653 ± 0.00016 |  |  | 0.000207 ± 6.9e-05
A6U C8U | < 1e-05 | < 1e-05 | < 1e-05 | < 1e-05 | < 1e-05
G35A C58U | < 1e-05 | < 1e-05 | < 1e-05 |  | 
G9U C68G | < 1e-05 | < 1e-05 | < 1e-05 |  | 
A42G G60U C68G |  |  |  | < 1e-05 | < 1e-05
A39C A53U G59U C67U | < 1e-05 |  |  |  | 
C8U A14U G29C U46A G51A |  |  | < 1e-05 | < 1e-05 | 
G7U G43U C68U | < 1e-05 | < 1e-05 | < 1e-05 |  | < 1e-05
A12G G35C | < 1e-05 |  | < 1e-05 |  | < 1e-05
A12U A15G A36U | < 1e-05 |  |  |  | 
C10U U49C |  | < 1e-05 | < 1e-05 | < 1e-05 | < 1e-05
G43C U45A C67U | 0.000282 ± 9.2e-05 | 0.00269 ± 0.00071 |  |  | 0.000977 ± 0.00034

Variant | self-cleavage kobs at 160 uM GlcN6P (glucosamine-6-phosphate [1]) [s⁻¹] | self-cleavage kobs at 2500 uM GlcN6P (glucosamine-6-phosphate [2]) [s⁻¹] | self-cleavage kobs at 10000 uM GlcN6P (glucosamine-6-phosphate [3]) [s⁻¹] | self-cleavage kobs at 40 uM GlcN6P (glucosamine-6-phosphate [4]) [s⁻¹] | self-cleavage kobs at 640 uM GlcN6P (glucosamine-6-phosphate [5]) [s⁻¹]
G9C G38C | < 1e-05 |  |  |  | 
C67U C68U C71G | 7.37e-05 ± 2e-05 |  |  |  | 
G40A A42U U49C C58G A64G C70G | < 1e-05 | < 1e-05 |  |  | < 1e-05
G7U G38U U46G |  |  |  | < 1e-05 | 
C11U G29U A39C U54A | < 1e-05 |  |  |  | 
G29C U46G U47A C70G | 5.51e-05 ± 2.1e-05 | 6.12e-05 ± 2.5e-05 |  |  | 0.00011 ± 3.9e-05
G7A A36G | < 1e-05 | < 1e-05 |  |  | < 1e-05
A39G C50U C58U |  |  |  | < 1e-05 | 
G9U G13C A42U | < 1e-05 | < 1e-05 |  |  | < 1e-05
G38U A48C C71G |  |  | < 1e-05 | < 1e-05 | 
C8G A12U G63U | < 1e-05 | < 1e-05 |  |  | < 1e-05
U30G G38C | < 1e-05 | < 1e-05 |  |  | < 1e-05
G44U G51C | < 1e-05 | < 1e-05 | < 1e-05 | < 1e-05 | < 1e-05
G63A C67U | < 1e-05 |  |  |  | 
A33U C50U C61A C68G C70U | 0.000144 ± 4.4e-05 |  |  |  | 0.000229 ± 6.4e-05
A12G C50U | < 1e-05 |  | < 1e-05 | < 1e-05 | 
G35C U54C G63A | < 1e-05 | < 1e-05 |  |  | 
C34U G37A C50A A52G C70G | 0.000507 ± 0.00015 | 0.000268 ± 9.2e-05 |  |  | 0.000453 ± 0.00013
G35U U46C | < 1e-05 |  |  |  | < 1e-05
C34A G38U A53C | < 1e-05 | < 1e-05 |  |  | < 1e-05
C8G G60A C61A | < 1e-05 | < 1e-05 | < 1e-05 |  | 
U49G U55G U65G |  |  | 6.42e-05 ± 1.5e-05 | < 1e-05 | 
G29U G32U A64U | < 1e-05 |  |  |  | 
C34A G41A U65G |  |  |  | < 1e-05 | 
C8G C70U | < 1e-05 | < 1e-05 | < 1e-05 |  | < 1e-05
A12U G29A A53G G62A | < 1e-05 | < 1e-05 |  |  | < 1e-05

Variant | self-cleavage kobs at 160 uM GlcN6P (glucosamine-6-phosphate [1]) [s⁻¹] | self-cleavage kobs at 2500 uM GlcN6P (glucosamine-6-phosphate [2]) [s⁻¹] | self-cleavage kobs at 10000 uM GlcN6P (glucosamine-6-phosphate [3]) [s⁻¹] | self-cleavage kobs at 40 uM GlcN6P (glucosamine-6-phosphate [4]) [s⁻¹] | self-cleavage kobs at 640 uM GlcN6P (glucosamine-6-phosphate [5]) [s⁻¹]
C34U A36G | < 1e-05 | < 1e-05 |  |  | < 1e-05
G44U U65G C70G | < 1e-05 | < 1e-05 |  |  | 
A15C U31C A39U A42C | < 1e-05 |  |  |  | 
G7U G38C C50A | < 1e-05 |  |  |  | < 1e-05
G38C G41U G63C | < 1e-05 | < 1e-05 |  |  | 
G13C G63U |  | < 1e-05 |  | < 1e-05 | 
C11U G32C A42G G59U | < 1e-05 | < 1e-05 |  |  | 
G41U U46G C61A | < 1e-05 | < 1e-05 |  |  | < 1e-05
A36U G44A U55A | < 1e-05 | < 1e-05 |  |  | 
G7C U31C G43C C50U | < 1e-05 |  | < 1e-05 | < 1e-05 | < 1e-05
A12U G41C A52U G59A G60U | < 1e-05 | < 1e-05 |  |  | 
C10U G37A G63A | < 1e-05 | < 1e-05 |  |  | < 1e-05
G7U U49G | < 1e-05 | < 1e-05 | < 1e-05 |  | < 1e-05
A12C G37U C50G U54G | 4.97e-05 ± 2.2e-05 | 9.24e-05 ± 3.8e-05 |  |  | 
C50G U55A | 9.39e-05 ± 2.2e-05 | 0.000374 ± 0.00012 |  |  | 
A33U C61G C70U | < 1e-05 |  |  |  | 
G35C A53G | < 1e-05 | < 1e-05 | < 1e-05 |  | < 1e-05
A33G A48C A52G | < 1e-05 |  |  |  | < 1e-05
A36C A52C C70U | < 1e-05 |  |  |  | < 1e-05
G38A G41A U45C A52G | < 1e-05 |  |  |  | < 1e-05
U30A A39G A48G C61U | < 1e-05 | < 1e-05 |  |  | 
C8U C16G G51U | < 1e-05 | < 1e-05 |  |  | < 1e-05
G44U G63U | < 1e-05 | < 1e-05 | < 1e-05 |  | < 1e-05
G51A U54A U55A |  |  |  | < 1e-05 | 
U30C G32U C34G C50G | 7.22e-05 ± 2.9e-05 | 9.31e-05 ± 2.4e-05 |  |  | 8.64e-05 ± 3.3e-05
G37C G41C | < 1e-05 | < 1e-05 |  |  | < 1e-05

Variant | self-cleavage kobs at 160 uM GlcN6P (glucosamine-6-phosphate [1]) [s⁻¹] | self-cleavage kobs at 2500 uM GlcN6P (glucosamine-6-phosphate [2]) [s⁻¹] | self-cleavage kobs at 10000 uM GlcN6P (glucosamine-6-phosphate [3]) [s⁻¹] | self-cleavage kobs at 40 uM GlcN6P (glucosamine-6-phosphate [4]) [s⁻¹] | self-cleavage kobs at 640 uM GlcN6P (glucosamine-6-phosphate [5]) [s⁻¹]
A48U C68U C70U | < 1e-05 |  |  |  | 
U31C U54C C67U | 8.1e-05 ± 1.6e-05 | 0.000804 ± 0.0002 |  |  | 0.000176 ± 3.7e-05
G43C U54A G60C | < 1e-05 |  |  |  | < 1e-05
G60U A64U C68U | < 1e-05 | < 1e-05 |  |  | < 1e-05
A15G G29A G63U |  |  | < 1e-05 | < 1e-05 | 
G41A G51C G63U C70G | < 1e-05 |  |  |  | < 1e-05
G40U G51U C58U | < 1e-05 |  |  |  | 
A36G G38U | < 1e-05 |  | < 1e-05 |  | 
C8U G9A C50G C67U |  | 0.000169 ± 4.6e-05 | 6.88e-05 ± 1.6e-05 | 6.37e-05 ± 1.7e-05 | 
G13U A15U G44A | < 1e-05 | < 1e-05 |  |  | < 1e-05
C11U G35A | < 1e-05 | < 1e-05 | < 1e-05 | < 1e-05 | < 1e-05
C8A C34U G40A A52U | < 1e-05 | < 1e-05 | < 1e-05 |  | < 1e-05
C8G G32U C34A |  |  |  | < 1e-05 | 
A33C C50A C71G | < 1e-05 |  |  |  | 
A36U U45C C50U |  |  |  | < 1e-05 | 
G29U G44C | < 1e-05 |  |  |  | 
A12G G13A U45C U49C C50A A52C A53U G66U | < 1e-05 | < 1e-05 |  |  | 
C8A C10G C34A | < 1e-05 | < 1e-05 |  |  | < 1e-05
A14U U49A | < 1e-05 |  |  | < 1e-05 | < 1e-05
A33C U57G | < 1e-05 |  |  |  | 
G35A U55C | < 1e-05 | < 1e-05 | < 1e-05 |  | < 1e-05
C16U G32U A48C G59C |  |  | < 1e-05 | < 1e-05 | 
G7C G29C G35U |  |  | < 1e-05 | < 1e-05 | < 1e-05
G29A G63C C70G | 7.77e-05 ± 3e-05 | 7.4e-05 ± 2.1e-05 |  |  | 0.000155 ± 4.1e-05
C11U A52C |  | < 1e-05 | < 1e-05 | < 1e-05 | < 1e-05
